Source: patent US5763177, “Systematic evolution of ligands by exponential enrichment: photoselection of nucleic acid ligands and solution selex” (NeXstar Pharmaceuticals, Inc.)

Key:
HIV-2 Rev [1] = target: T1, HIV-2 Rev (Human immunodeficiency virus 2, UniProt P04615 P04615:1-100); experiment: photocrosslinking 325 nm 4 min, 500 nM protein, 20 ug tRNA, 37 C; conditions: hairpin
T1 sequence: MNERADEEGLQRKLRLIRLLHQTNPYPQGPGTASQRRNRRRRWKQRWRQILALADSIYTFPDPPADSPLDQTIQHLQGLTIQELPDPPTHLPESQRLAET
From the text: (§1) The sequences are aligned for maximum homology to the 6a sequence (SEQ ID NO:5). Underlines represent potential base pairing as indicted by computer RNA folding algorithms. Dashed underlines represent the 6a ligand "bubble" motif. Sequences flanked by underline represent either loop or bulge regions. Dashes are placed to maximize alignment with 6a. * denotes that two isolates were obtained. +indicates laser independent crosslinking and—denotes the lack of laser independent crosslinking to HIV-1 Rev. […] FIGS. 18 and 19 show the sequence of Trunc2 (SEQ ID NO:58) and Trunc24 (SEQ ID NO:59) and the specificity results. 500 nM protein, 20 µg tRNA, and approximately 1 nM of kinased trunc2 RNA were incubated for 10 min. at 37° C. and irradiated for 4 min at 325 nm. t2-trunc2 RNA irradiated without added protein; t2Rev1/0'-trunc2 RNA, HIV-1 Rev protein and 0 min. of irradiation; t2/Rev1/4'-trunc2 RNA, HIV-1 Rev protein, adn 4 min. of irradiation; t2/Rev1/4'/ PK-trunc2 RNA, HIV1 Rev protein, 4 min. or irradiation, and proteinase K treated as in FIG. 1; t2/Rev2/4'-trunc2 RNA, HIV-2 Rev protein, and 4 min. of irradiation; t2/Tat/ 4'-trunc2 RNA, HIV-1 Tat protein, and 4 min. of irradiation. R-free RNA; XL-crosslinked nucleoprotein complex.

HIV-1 Rev [2] = target: T2, HIV-1 Rev (Human immunodeficiency virus 1, UniProt P04618 P04618:1-116); experiment: monophasic; laser-dependent crosslinking at 325 nm; conditions: hairpin
From the text: as §1

HIV-1 Rev [3] = target: T2, HIV-1 Rev; experiment: monophasic; crosslinks with and without laser, also at 50 nM Rev in human nuclear extract (FIG. 20); conditions: hairpin
Protocol: To test for the ability of trunc24 (SEQ ID NO:59) to discriminate HIV-1 Rev in a complex mixture, trunc24 and 10 µg of human fibroblast nuclear extract together with decreasing amounts of HIV-1 Rev (FIG. 20). At 50 nM Rev and a 1:100 weight ratio of Rev to nuclear extract, it was possible to see a very significant crosslinked product between trunc24 and Rev.

HIV-2 Rev [4] = target: T1, HIV-2 Rev; experiment: photocrosslinks (data not shown); no laser-independent crosslink (FIG. 19); conditions: hairpin
[5] = target: T3, R17 bacteriophage coat protein (Bacteriophage R17, UniProt P69170 P69170:1-129); experiment: filter; value only in figure; TMK buffer 10 mM Mg acetate, 80 mM KCl, 100 mM Tris pH 8.5, 4 C; crosslinks max about 40% at 308 nm; conditions: tags: purified from R17 phage propagated in E. coli S26; chain copies: 2; label: 32P; hairpin
Protocol: (§2) RNA-protein binding curves for hairpin variants RNA1 (SEQ ID NO:1), RNA-2 (SEQ ID NO:2) and RNA-3 (SEQ ID NO:3) to the bacteriophage R17 coat protein are shown in FIG. 7. The association constants between coat protein and the RNA hairpin variants were determined with a nitrocellulose filter retention assay described by Carey and co-workers (Carey et al. (1983) supra). A constant, low-concentration of ^32p-labeled RNA was mixed with a series of coat protein concentrations between 0.06 nM and 1 µM in 10 mM magnesium acetate, 80 mM KCL, 80 Ag/ml BSA, and 100 mM Tris-HCl (pH 8.5 at 4° C.) (TMK buffer). These were the same solution conditions used in the crosslinking experiments. After incubation at 4° C. for 45–60 min, the mixture was filtered through a nitrocellulose filter and the amount of complex retained on the filter determined by liquid scintillation counting.
^32P-Labeled RNA sequences RNA-1 (SEQ ID NO:1) and RNA-2 (SEQ ID NO:2) (5 nM) and R17 coat protein (120 nM) were each incubated on ice in 100 mM Tris-HCl (pH 8.5 at 4° C.), 80 mM KCl, 10 mM magnesium acetate, […] of BSA for 15–25 min before irradiations. These are conditions under which the RNA is fully bound to the coat protein. […] Crosslinked RNA was separated from uncrosslinked RNA by PAGE, and the yields were determined by autoradiography.

[6] = target: T3, R17 bacteriophage coat protein; experiment: filter; value only in figure; TMK buffer 10 mM Mg acetate, 80 mM KCl, 100 mM Tris pH 8.5, 4 C; near-quantitative crosslinking at 325 nm; conditions: tags: purified from R17 phage propagated in E. coli S26; chain copies: 2; label: 32P; hairpin
[7] = target: T3, R17 bacteriophage coat protein; experiment: filter; value only in figure; TMK buffer 10 mM Mg acetate, 80 mM KCl, 100 mM Tris pH 8.5, 4 C; conditions: tags: purified from R17 phage propagated in E. coli S26; chain copies: 2; label: 32P; hairpin
Protocol: as §2

[8] = target: T3, R17 bacteriophage coat protein; experiment: photocrosslinking at 308 nm 5 min, 6.75 nM RNA, 120 nM protein; conditions: tags: purified from R17 phage propagated in E. coli S26; chain copies: 2; hairpin
Protocol: RNA-7 (SEQ ID NO:4) (FIG. 11) was prepared using methodology as reported in Example 1 using a plasmid instead of a DNA template. The photocrosslinking was performed as described in Example 3. A 4 ml reaction mixture consisting of 6.75 nM RNA and 120 nM R17 coat protein was irradiated, 2 ml at a time, at 308 nm with unfocused emission from a XeCl excimer laser. The laser produced 50 mJ/pulse and was operated at 10 Hz. The reaction proceeded to near quantitative crosslinking, 85–90%, in 5 min of irradiation. After crosslinking, 1 ml of the total reaction mixture was removed; EDTA (80 mM), SDS (0.1%), and CaCl_2 (0.1 mM) were added; the free (unbound) RNA present was purified away; and the protein digested with Proteinase K at 60° C. for 30 min. The RNA bound to residual protein was ethanol precipitated to remove salts and spun to a pellet. The pellet was washed three times with 70% ethanol to remove any residual salts. A reverse transcription reaction was employed to make a complementary DNA copy of the RNA template. A 13-base […] was annealed to the RNA and the reverse transcription reaction was performed under the standard conditions of the manufacturer, Gibco (Gaithersburg, Md.), and was stopped after 1 hr. […] No stop in the 31 nucleotide region of the gel appeared; this established that the reverse transcriptase had read through the position of the crosslink. […]

T3 sequence (P69170 whole entry, one chain of several): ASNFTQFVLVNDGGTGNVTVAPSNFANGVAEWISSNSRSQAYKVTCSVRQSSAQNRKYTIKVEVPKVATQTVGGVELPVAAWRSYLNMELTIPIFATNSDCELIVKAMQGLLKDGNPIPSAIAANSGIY
T2 sequence (P04618 whole entry, one chain of several): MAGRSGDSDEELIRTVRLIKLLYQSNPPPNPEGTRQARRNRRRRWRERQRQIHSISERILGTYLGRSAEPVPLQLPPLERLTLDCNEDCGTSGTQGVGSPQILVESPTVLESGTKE

GGGUGUAUGAAACACCACGUGUGUUUCCACUC (ssRNA, 5-iodouracil in place of all U) [trunc2] was tested, and the binding result (HIV-2 Rev [1]) was “binds” and the Kd (HIV-1 Rev [2]) was 0.5 nM.

In the case of GGGGAUUAACAGGCACACCUGUUAACCCU (ssRNA, 5-iodouracil in place of all U) [trunc24], the Kd (HIV-1 Rev [3]) is reported as 20 nM and the binding result (HIV-2 Rev [4]) is reported as “binds”.

GGGAGCGAGCAAUAGCCGC (ssRNA, 5-bromouracil in place of U) [RNA-1]: binds [5].

GGGAGCGAGCAAUAGCCGC (ssRNA, 5-iodouracil in place of U) [RNA-2]: binds [6].

GGGAGCGAGCAAUAGCCGC (ssRNA) [RNA-3]: binds [7].

GAACAUGAGGAUUACCCAUGAAUUCGAGCUCGCCCGGGCUCUAG (ssRNA, 5-iodouracil in place of U) [RNA-7]: binds [8].
